From US7410949 (Hoffmann-La Roche, dated 2008)
*1 amine or outer side, *2 acyl side, *3 side chain or, on linkers, in order; H or OH if unused. Bridges are numbered along the chain shown (N, C = ends). [ ]: non-standard residue; d: D form. Pqa = N-piperazin-1-yl-4(3H)-quinazolinone-3-acetic acid, O=C(Cn1cnc2ccc(N3CCN([*:1])CC3)cc2c1=O)[*:2]; Phe(3,4,5-F3) = N[C@@H](Cc1cc(F)c(F)c(F)c1)C(=O)O; Phe(F5) = N[C@@H](Cc1c(F)c(F)c(F)c(F)c1F)C(=O)O; 3Pal = N[C@@H](Cc1cccnc1)C(=O)O; Tic = O=C(O)[C@@H]1Cc2ccccc2CN1; Nle = CCCC[C@H](N)C(=O)O

B1: H-(D) Ile-Lys-Pqa-Arg-His-Tyr-Leu-Asn-Leu-Val-Thr-Arg-Gln-Arg-Tyr-NH2 (peptide)
peptide: IKRHYLNLVTRQRY
modifications: (D)Ile at PYY position 3 (residue 1 of the first part); Pqa moiety between the two parts; C-terminal amide
B2: H-Ile-Lys-Pqa-Arg-His-(NMe)Tyr-Leu-Asn-Leu-Val-Thr-Arg-Gln-Arg-Tyr-NH2 (peptide)
peptide: IKRHYLNLVTRQRY
modifications: N-methyl Tyr at PYY position 27 (residue 3 of the second part); Pqa moiety between the two parts; C-terminal amide
B3: Ac-Ile-Nle-Pqa-Arg-His-(2,3,4,5,6 Penta fluoroPhe)-Leu-Asn-Leu-Val-Thr-Arg-Gln-Arg-Tyr-NH2 (peptide)
peptide: Ac-I[Nle][Pqa]RH[Phe(F5)]LNLVTRQRY-NH2
SMILES: CCCC[C@H](NC(=O)[C@@H](NC(C)=O)[C@@H](C)CC)C(=O)N1CCN(c2ccc3ncn(CC(=O)N[C@@H](CCCNC(=N)N)C(=O)N[C@@H](Cc4c[nH]cn4)C(=O)N[C@@H](Cc4c(F)c(F)c(F)c(F)c4F)C(=O)N[C@@H](CC(C)C)C(=O)N[C@@H](CC(N)=O)C(=O)N[C@@H](CC(C)C)C(=O)N[C@H](C(=O)N[C@H](C(=O)N[C@@H](CCCNC(=N)N)C(=O)N[C@@H](CCC(N)=O)C(=O)N[C@@H](CCCNC(=N)N)C(=O)N[C@@H](Cc4ccc(O)cc4)C(N)=O)[C@@H](C)O)C(C)C)c(=O)c3c2)CC1
B4: H-Ile-Lys-Pqa-Arg-His-Tyr-Leu-Asn-Leu-Val-(NMe)Thr-Arg-Gln-Arg-Tyr-NH2 (peptide)
peptide: IKRHYLNLVTRQRY
modifications: N-methyl Thr at PYY position 32 (residue 8 of the second part); Pqa moiety between the two parts; C-terminal amide
B5: H-Ile-Lys-Pqa-Arg-His-Tyr-Leu-Asn-Leu-Val-Thr-Arg-Ala-Arg-Tyr-NH2 (peptide)
peptide: H-IK[Pqa]RHYLNLVTRARY-NH2
SMILES: CC[C@H](C)[C@H](N)C(=O)N[C@@H](CCCCN)C(=O)N1CCN(c2ccc3ncn(CC(=O)N[C@@H](CCCNC(=N)N)C(=O)N[C@@H](Cc4c[nH]cn4)C(=O)N[C@@H](Cc4ccc(O)cc4)C(=O)N[C@@H](CC(C)C)C(=O)N[C@@H](CC(N)=O)C(=O)N[C@@H](CC(C)C)C(=O)N[C@H](C(=O)N[C@H](C(=O)N[C@@H](CCCNC(=N)N)C(=O)N[C@@H](C)C(=O)N[C@@H](CCCNC(=N)N)C(=O)N[C@@H](Cc4ccc(O)cc4)C(N)=O)[C@@H](C)O)C(C)C)c(=O)c3c2)CC1
B6: H-Ile-Lys-Pqa-Arg-His-Tyr-(NMe)Leu-Asn-Leu-Val-Thr-Arg-Gln-Arg-Tyr-NH2 (peptide)
peptide: IKRHYLNLVTRQRY
modifications: N-methyl Leu at PYY position 28 (residue 4 of the second part); Pqa moiety between the two parts; C-terminal amide
B7: H-Ile-(D)Lys-Pqa-Arg-His-Tyr-Leu-Asn-Leu-Val-Thr-Arg-Gln-Arg-Tyr-NH2 (peptide)
peptide: IKRHYLNLVTRQRY
modifications: (D)Lys at PYY position 4 (residue 2 of the first part); Pqa moiety between the two parts; C-terminal amide
B8: H-Ile-Lys-Pqa-Arg-His-Tyr-Leu-Asn-(NMe)Leu-Val-Thr-Arg-Gln-Arg-Tyr-NH2 (peptide)
peptide: IKRHYLNLVTRQRY
modifications: N-methyl Leu at PYY position 30 (residue 6 of the second part); Pqa moiety between the two parts; C-terminal amide
B9: Ac-Ile-Nle-Pqa-Arg-His-Tic-Leu-Asn-Leu-Val-Thr-Arg-Gln-Arg-Tyr-NH2 (peptide)
peptide: Ac-I[Nle][Pqa]RH[Tic]LNLVTRQRY-NH2
SMILES: CCCC[C@H](NC(=O)[C@@H](NC(C)=O)[C@@H](C)CC)C(=O)N1CCN(c2ccc3ncn(CC(=O)N[C@@H](CCCNC(=N)N)C(=O)N[C@@H](Cc4c[nH]cn4)C(=O)N4Cc5ccccc5C[C@H]4C(=O)N[C@@H](CC(C)C)C(=O)N[C@@H](CC(N)=O)C(=O)N[C@@H](CC(C)C)C(=O)N[C@H](C(=O)N[C@H](C(=O)N[C@@H](CCCNC(=N)N)C(=O)N[C@@H](CCC(N)=O)C(=O)N[C@@H](CCCNC(=N)N)C(=O)N[C@@H](Cc4ccc(O)cc4)C(N)=O)[C@@H](C)O)C(C)C)c(=O)c3c2)CC1
B10: H-Ile-Lys-Pqa-Arg-His-Tyr-(D)Leu-Asn-Leu-Val-Thr-Arg-Gln-Arg-Tyr-NH2 (peptide)
peptide: IKRHYLNLVTRQRY
modifications: (D)Leu at PYY position 28 (residue 4 of the second part); Pqa moiety between the two parts; C-terminal amide
B11: H-Ile-Lys-Pqa-Arg-His-(D)Tyr-Leu-Asn-Leu-Val-Thr-Arg-Gln-Arg-Tyr-NH2 (peptide)
peptide: IKRHYLNLVTRQRY
modifications: (D)Tyr at PYY position 27 (residue 3 of the second part); Pqa moiety between the two parts; C-terminal amide
B12: H-Ile-Lys-Pqa-Arg-His-Tyr-Leu-Asn-Leu-Val-Thr-(NMe)Arg-Gln-Arg-Tyr-NH2 (peptide)
peptide: IKRHYLNLVTRQRY
modifications: N-methyl Arg at PYY position 33 (residue 9 of the second part); Pqa moiety between the two parts; C-terminal amide
B13: H-Ile-Lys-Pqa-Arg-His-Tyr-Leu-Asn-Leu-Val-Thr-Arg-Gln-Arg-(NMe)Tyr-NH2 (peptide)
peptide: IKRHYLNLVTRQRY
modifications: N-methyl Tyr at PYY position 36 (residue 12 of the second part); Pqa moiety between the two parts; C-terminal amide
B14: H-Ile-Lys-Pqa-Arg-His-Tyr-Leu-(D))Asn-Leu-Val-Thr-Arg-Gln-Arg-Tyr-NH2 (peptide)
peptide: IKRHYLNLVTRQRY
modifications: (D)Asn at PYY position 29 (residue 5 of the second part); Pqa moiety between the two parts; C-terminal amide
B15: H-Ile-Lys-Pqa-Arg-His-Tyr-Leu-Asn-Leu-Val-Thr-Arg-Gln-Arg-(D)Tyr-NH2 (peptide)
peptide: IKRHYLNLVTRQRY
modifications: (D)Tyr at PYY position 36 (residue 12 of the second part); Pqa moiety between the two parts; C-terminal amide
B16: H-Ile-Lys-Pqa-Ala-His-Tyr-Leu-Asn-Leu-Val-Thr-Arg-Gln-Arg-Tyr-NH2 (peptide)
peptide: H-IK[Pqa]AHYLNLVTRQRY-NH2
SMILES: CC[C@H](C)[C@H](N)C(=O)N[C@@H](CCCCN)C(=O)N1CCN(c2ccc3ncn(CC(=O)N[C@@H](C)C(=O)N[C@@H](Cc4c[nH]cn4)C(=O)N[C@@H](Cc4ccc(O)cc4)C(=O)N[C@@H](CC(C)C)C(=O)N[C@@H](CC(N)=O)C(=O)N[C@@H](CC(C)C)C(=O)N[C@H](C(=O)N[C@H](C(=O)N[C@@H](CCCNC(=N)N)C(=O)N[C@@H](CCC(N)=O)C(=O)N[C@@H](CCCNC(=N)N)C(=O)N[C@@H](Cc4ccc(O)cc4)C(N)=O)[C@@H](C)O)C(C)C)c(=O)c3c2)CC1
B17: Ac-Ile-Nle-Pqa-Arg-(3-Pal)-Tyr-Leu-Asn-Leu-Val-Thr-Arg-Gln-Arg-Tyr-NH2 (peptide)
peptide: Ac-I[Nle][Pqa]R[3Pal]YLNLVTRQRY-NH2
SMILES: CCCC[C@H](NC(=O)[C@@H](NC(C)=O)[C@@H](C)CC)C(=O)N1CCN(c2ccc3ncn(CC(=O)N[C@@H](CCCNC(=N)N)C(=O)N[C@@H](Cc4cccnc4)C(=O)N[C@@H](Cc4ccc(O)cc4)C(=O)N[C@@H](CC(C)C)C(=O)N[C@@H](CC(N)=O)C(=O)N[C@@H](CC(C)C)C(=O)N[C@H](C(=O)N[C@H](C(=O)N[C@@H](CCCNC(=N)N)C(=O)N[C@@H](CCC(N)=O)C(=O)N[C@@H](CCCNC(=N)N)C(=O)N[C@@H](Cc4ccc(O)cc4)C(N)=O)[C@@H](C)O)C(C)C)c(=O)c3c2)CC1
B18: Ac-Ile-Nle-Pqa-Phe-His-Tyr-Leu-Asn-Leu-Val-Thr-Arg-Gln-Arg-Tyr-NH2 (peptide)
peptide: Ac-I[Nle][Pqa]FHYLNLVTRQRY-NH2
SMILES: CCCC[C@H](NC(=O)[C@@H](NC(C)=O)[C@@H](C)CC)C(=O)N1CCN(c2ccc3ncn(CC(=O)N[C@@H](Cc4ccccc4)C(=O)N[C@@H](Cc4c[nH]cn4)C(=O)N[C@@H](Cc4ccc(O)cc4)C(=O)N[C@@H](CC(C)C)C(=O)N[C@@H](CC(N)=O)C(=O)N[C@@H](CC(C)C)C(=O)N[C@H](C(=O)N[C@H](C(=O)N[C@@H](CCCNC(=N)N)C(=O)N[C@@H](CCC(N)=O)C(=O)N[C@@H](CCCNC(=N)N)C(=O)N[C@@H](Cc4ccc(O)cc4)C(N)=O)[C@@H](C)O)C(C)C)c(=O)c3c2)CC1
B19: Ac-Ile-Nle-Pqa-Arg-His-(3,4,5trifluorPhe)-Leu-Asn-Leu-Val-Thr-Arg-Gln-Arg-Tyr-NH2 (peptide)
peptide: Ac-I[Nle][Pqa]RH[Phe(3,4,5-F3)]LNLVTRQRY-NH2
SMILES: CCCC[C@H](NC(=O)[C@@H](NC(C)=O)[C@@H](C)CC)C(=O)N1CCN(c2ccc3ncn(CC(=O)N[C@@H](CCCNC(=N)N)C(=O)N[C@@H](Cc4c[nH]cn4)C(=O)N[C@@H](Cc4cc(F)c(F)c(F)c4)C(=O)N[C@@H](CC(C)C)C(=O)N[C@@H](CC(N)=O)C(=O)N[C@@H](CC(C)C)C(=O)N[C@H](C(=O)N[C@H](C(=O)N[C@@H](CCCNC(=N)N)C(=O)N[C@@H](CCC(N)=O)C(=O)N[C@@H](CCCNC(=N)N)C(=O)N[C@@H](Cc4ccc(O)cc4)C(N)=O)[C@@H](C)O)C(C)C)c(=O)c3c2)CC1
B20: H-Ile-Lys-Pqa-Arg-His-Tyr-Leu-Asn-Leu-(NMe)Val-Thr-Arg-Gln-Arg-Tyr-NH2 (peptide)
peptide: IKRHYLNLVTRQRY
modifications: N-methyl Val at PYY position 31 (residue 7 of the second part); Pqa moiety between the two parts; C-terminal amide

Columns and labels:
Y1R = experiment: cell-based or functional assay
Y4R = experiment: cell-based or functional assay

Y1R, sequence (P25929 whole entry): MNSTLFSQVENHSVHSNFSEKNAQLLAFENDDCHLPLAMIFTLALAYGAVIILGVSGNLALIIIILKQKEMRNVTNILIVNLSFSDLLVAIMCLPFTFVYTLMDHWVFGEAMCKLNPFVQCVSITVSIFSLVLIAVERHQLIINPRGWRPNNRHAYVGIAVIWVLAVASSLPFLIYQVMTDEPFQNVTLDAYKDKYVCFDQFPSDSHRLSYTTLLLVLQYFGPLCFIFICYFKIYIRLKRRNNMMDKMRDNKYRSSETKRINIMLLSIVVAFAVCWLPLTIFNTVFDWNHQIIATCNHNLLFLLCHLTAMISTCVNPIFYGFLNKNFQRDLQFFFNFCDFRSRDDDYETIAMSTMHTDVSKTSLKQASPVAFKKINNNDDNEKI

Binder | Y1R EC50(nM) FLIPR (Y1R) [nM] | Y4R EC50(nM) FLIPR (Y4R) [nM]
B1 | > 5000 | > 5000
B2 | > 5000 | > 5000
B3 |  | > 5000
B4 | > 5000 | > 5000
B5 | > 5000 | > 5000
B6 | > 5000 | > 5000
Ac-I[Nle][Pqa]RHYKNLVDRQRY-NH2 (lactam 7-11) [Cyclo Lys28-Asp32 Ac-Ile-Nle-Pqa-Arg-His-Tyr-Lys-Asn-Leu-Val-Asp-Arg-Gln-Arg-Tyr-NH2] | > 5000 | > 5000
B7 | > 5000 | > 5000
B8 | > 5000 | > 5000
B9 | > 5000 | > 5000
B10 |  | > 5000
B11 |  | > 5000
B12 | > 5000 | > 5000
B13 | > 5000 | > 5000
B14 |  | > 5000
B15 |  | > 5000
B16 |  | > 5000
B17 |  | > 5000
B18 | > 5000 | > 5000
B19 |  | > 5000
B20 | > 5000 | > 5000
